# In the Human Domainome abundance scans (Beltran et al. 2025):
# ± gives the uncertainty stated by the source.
# B1: Storkhead-box protein 2, residues 64 to 141; numbered along this chain, Q9P2F5 (parent)
# chain: SPISQSQFIPLGEILCLAISAMNSARKPVTQEALMEHLTTCFPGVPTPSQEILRHTLNTLVRERKIYPTPDGYFIVTP
# Variants of: B1
# Assay: abundance fitness (aPCA) (normalised: wild type 0, dead -1); higher = more abundant; growth selection in yeast, the domain comes from the species named
# Settings: Homo sapiens
row,Variant,abundance fitness
1,P46V,-0.086 ± 0.04
2,P46L,-0.128 ± 0.035
3,P46Q,-0.187 ± 0.06
4,P46N,-0.124 ± 0.12
5,P46E,-0.067 ± 0.039
6,P46W,-0.174 ± 0.044
7,P46K,-0.243 ± 0.1
8,P46T,-0.03 ± 0.056
9,P46H,-0.14 ± 0.072
10,P46R,-0.157 ± 0.034
11,P46Y,-0.402 ± 0.17
12,P46I,0.015 ± 0.085
13,P46A,-0.079 ± 0.046
14,P46C,-0.078 ± 0.067
15,P46G,-0.133 ± 0.032
16,P46D,-0.081 ± 0.075
17,P46M,-0.107 ± 0.058
18,P46S,-0.15 ± 0.045
19,P46F,-0.408 ± 0.08
20,S49N,-0.173 ± 0.11
21,S49P,-0.27 ± 0.045
22,S49G,-0.068 ± 0.032
23,S49L,-0.684 ± 0.055
24,S49V,-0.575 ± 0.043

row,Variant,abundance fitness
1,S49I,-0.835 ± 0.12
2,S49A,-0.109 ± 0.035
3,S49T,-0.16 ± 0.055
4,S49C,-0.068 ± 0.053
5,S49E,-0.24 ± 0.063
6,S49K,-0.139 ± 0.055
7,S49M,-0.68 ± 0.1
8,S49H,-0.225 ± 0.077
9,S49R,-0.21 ± 0.036
10,S49Q,-0.265 ± 0.082
11,S49F,-0.887 ± 0.1
12,P48R,-0.415 ± 0.035
13,P48T,-0.357 ± 0.054
14,P48A,-0.186 ± 0.044
15,P48H,-0.354 ± 0.065
16,P48S,-0.418 ± 0.039
17,P48M,-0.099 ± 0.13
18,P48I,-0.016 ± 0.069
19,P48N,-0.5 ± 0.099
20,P48W,-0.28 ± 0.045
21,P48K,-0.44 ± 0.15
22,P48L,-0.259 ± 0.039
23,P48Y,-0.201 ± 0.06
24,P48D,-0.398 ± 0.055

row,Variant,abundance fitness
1,P48Q,-0.156 ± 0.071
2,P48F,-0.141 ± 0.072
3,P48G,-0.311 ± 0.034
4,P48E,-0.447 ± 0.069
5,P48C,-0.085 ± 0.048
6,G44R,0.117 ± 0.032
7,G44L,-0.091 ± 0.034
8,G44N,0.024 ± 0.17
9,G44D,0.073 ± 0.12
10,G44P,-0.063 ± 0.053
11,G44W,-0.103 ± 0.056
12,G44V,-0.111 ± 0.035
13,G44Q,-0.055 ± 0.068
14,G44T,-0.037 ± 0.054
15,G44H,-0.023 ± 0.077
16,G44S,0.016 ± 0.042
17,G44Y,-0.036 ± 0.12
18,G44C,-0.046 ± 0.064
19,G44A,-0.054 ± 0.044
20,G44F,-0.156 ± 0.069
21,G44M,-0.024 ± 0.055
22,C41V,-0.056 ± 0.035
23,C41K,-0.11 ± 0.082
24,C41R,-0.05 ± 0.047

row,Variant,abundance fitness
1,C41Y,-0.062 ± 0.09
2,C41T,-0.105 ± 0.072
3,C41N,-0.024 ± 0.14
4,C41E,0.004 ± 0.067
5,C41P,-0.534 ± 0.1
6,C41D,-0.055 ± 0.064
7,C41M,0.032 ± 0.091
8,C41S,0.021 ± 0.065
9,C41A,0.019 ± 0.051
10,C41W,-0.088 ± 0.056
11,C41H,-0.096 ± 0.15
12,C41Q,-0.292 ± 0.16
13,C41F,0.01 ± 0.082
14,C41G,0.019 ± 0.042
15,C41I,-0.129 ± 0.15
16,F42R,0.001 ± 0.1
17,F42I,0.009 ± 0.15
18,F42T,0.176 ± 0.17
19,F42A,-0.05 ± 0.12
20,F42D,0.273 ± 0.28
21,F42E,0.108 ± 0.13
22,F42N,0.106 ± 0.21
23,F42V,-0.045 ± 0.11
24,F42M,0.033 ± 0.2

row,Variant,abundance fitness
1,F42P,-0.057 ± 0.1
2,F42W,-0.086 ± 0.047
3,F42L,-0.08 ± 0.1
4,F42Q,-0.661 ± 0.47
5,V45T,-0.031 ± 0.061
6,V45K,-0.222 ± 0.091
7,V45R,-0.06 ± 0.03
8,V45C,-0.003 ± 0.05
9,V45W,0.028 ± 0.042
10,V45S,-0.113 ± 0.043
11,V45N,-0.209 ± 0.13
12,V45E,-0.155 ± 0.067
13,V45L,-0.05 ± 0.031
14,V45Q,-0.007 ± 0.076
15,V45F,0.067 ± 0.069
16,V45H,0.078 ± 0.12
17,V45I,0.026 ± 0.08
18,V45D,-0.207 ± 0.091
19,V45Y,0.051 ± 0.12
20,V45A,-0.088 ± 0.043
21,V45M,-0.109 ± 0.06
22,V45P,-0.168 ± 0.064
23,P43C,-0.135 ± 0.026
24,P43Y,-0.109 ± 0.093

row,Variant,abundance fitness
1,P43A,-0.137 ± 0.056
2,P43S,-0.023 ± 0.048
3,P43F,-0.184 ± 0.093
4,P43V,-0.076 ± 0.047
5,P43I,-0.092 ± 0.11
6,P43G,-0.101 ± 0.036
7,P43M,-0.21 ± 0.071
8,P43E,-0.006 ± 0.065
9,P43L,-0.09 ± 0.055
10,P43H,-0.001 ± 0.11
11,P43K,0.048 ± 0.057
12,P43Q,-0.057 ± 0.064
13,P43D,-0.119 ± 0.17
14,P43T,-0.028 ± 0.067
15,P43W,-0.23 ± 0.055
16,T40Y,-0.069 ± 0.12
17,T40V,-0.013 ± 0.051
18,T47S,-0.092 ± 0.041
19,T47R,-0.018 ± 0.032
20,T47C,-0.115 ± 0.053
21,T47N,-0.151 ± 0.1
22,T47Y,-0.132 ± 0.085
23,T47E,-0.199 ± 0.05
24,T47K,0.021 ± 0.056

row,Variant,abundance fitness
1,T47H,-0.166 ± 0.12
2,T47P,-0.191 ± 0.049
3,T47L,-0.073 ± 0.032
4,T47D,-0.277 ± 0.067
5,T47W,-0.397 ± 0.04
6,T47A,-0.082 ± 0.034
7,T47G,-0.197 ± 0.026
8,T47V,0.071 ± 0.031
9,T47Q,-0.067 ± 0.054
10,T47F,-0.273 ± 0.055
11,T47I,0.11 ± 0.064
12,Q50P,-0.055 ± 0.081
13,Q50F,0.013 ± 0.16
14,Q50R,-0.036 ± 0.043
15,Q50K,-0.014 ± 0.097
16,Q50D,0.118 ± 0.15
17,Q50M,0.036 ± 0.083
18,Q50A,-0.011 ± 0.053
19,Q50N,-0.08 ± 0.16
20,Q50H,-0.022 ± 0.1
21,Q50I,0.047 ± 0.12
22,Q50G,0.053 ± 0.044
23,Q50C,-0.076 ± 0.1
